From publication PMC3359404

How the values were obtained:
Assay in all cases: purified protein
Conditions in all cases: 10 mM pyruvate, 0.3 mM NADPH, 150 mM PIPES pH 6.6, room temperature
[1] = system: N[C@@H](CCO)C(=O)O
[2] = system: CSCC[C@H](N)C(=O)O
[3] = system: N[C@@H](CS)C(=O)O
[4] = system: N=C(N)NOCC[C@H](N)C(=O)O
[5] = system: NCC(=O)O
[6] = system: NC(=O)CC[C@H](N)C(=O)O
[7] = system: C[S+](C)CC[C@H](N)C(=O)O
[8] = system: N[C@@H](CCS)C(=O)O
[9] = system: N[C@@H](Cc1c[nH]cn1)C(=O)O

In the case of “Ocs (His6-Ocs), octopine synthase (Agrobacterium tumefaciens (strain 15955))”, the Km [1] is reported as 15 ± 3 mM, the kcat [1] is reported as 30 s⁻¹ and the kcat/Km [1] is reported as 2000 M⁻¹ s⁻¹. The Km [2] was 27 ± 6 mM, the kcat [2] was 78.3 s⁻¹ and the kcat/Km [2] was 2830 M⁻¹ s⁻¹. For the same substance, the Km [3] was 11 ± 3 mM, the kcat [3] was 11.2 s⁻¹ and the kcat/Km [3] was 1020 M⁻¹ s⁻¹. The Km [4] was 2.8 ± 0.5 mM, the kcat [4] was 16.7 s⁻¹ and the kcat/Km [4] was 6000 M⁻¹ s⁻¹. It also gave a Km [5] of 30 ± 6 mM, a kcat/Km [5] of 717 M⁻¹ s⁻¹ and a Km [6] of 5.6 ± 0.6 mM. The kcat [6] was 13 s⁻¹, the kcat/Km [6] was 2330 M⁻¹ s⁻¹ and the Km [7] was 0.31 ± 0.04 mM. For the same substance, the kcat [7] was 0.817 s⁻¹, the kcat/Km [7] was 2670 M⁻¹ s⁻¹ and the Km [8] was 8.9 ± 1.1 mM. The kcat [8] was 26.7 s⁻¹, the kcat/Km [8] was 3000 M⁻¹ s⁻¹ and the Km [9] was 2.0 ± 0.21 mM. For the same substance, the kcat [9] was 20 s⁻¹ and the kcat/Km [9] was 10000 M⁻¹ s⁻¹.
